Experiments:
[1] = biological target: ADCP1 Agenet 3/4 domain (amino acids 201-355) (Arabidopsis thaliana) (UniProt Q500V5); assay: ITC; H3 peptides (usually 1 mM) titrated into ADCP1 tandem Agenet domains (0.05-0.1 mM); 25 °C; 100 mM NaCl, 20 mM Tris-HCl, pH 7.5; MicroCal PEAQ-ITC; 'One Set of Sites' fitting model
[2] = biological target: ADCP1 Agenet 1/2 domain (amino acids 31-177) (Arabidopsis thaliana) (UniProt Q500V5); assay: as above
[3] = biological target: ADCP1 (Agenet Domain Containing Protein 1) Agenet 5/6, 376-517 (UniProt Q500V5); assay: ITC; conditions: reference: H3K9me2 peptide; sites S10
[4] = biological target: ADCP1 (Agenet Domain Containing Protein 1) Agenet 1/2, 31-177 (UniProt Q500V5); assay: ITC; conditions: reference: H3K9me2 peptide; sites S10
[5] = biological target: ADCP1 (Agenet Domain Containing Protein 1) Agenet 3/4, 201-355 (UniProt Q500V5); assay: ITC; conditions: reference: H3K9me2 peptide; sites S10
[6] = biological target: T1, ADCP1 Agenet 1/2 domain (amino acids 31-177) (Arabidopsis, UniProt Q500V5 31-177); assay: ITC
T1 chain: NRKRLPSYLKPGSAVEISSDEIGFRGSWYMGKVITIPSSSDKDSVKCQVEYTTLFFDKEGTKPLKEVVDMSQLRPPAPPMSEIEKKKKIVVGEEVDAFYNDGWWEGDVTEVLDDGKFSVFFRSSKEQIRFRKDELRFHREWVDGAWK

ADCP1-H3K9me3 NA = assay: Aurora B treatment of phase-separated ADCP1-H3K9me3 NA; type: biochemical; conditions: kinase 5 µM, ATP 50 µM, 30 °C, 5 h
Method: (§1) Aurora B kinase, ATP (NEB, P0756S) and 10 × kinase buffer (CST, 9802S) were added to the nucleosome array. The final concentration of kinase was 5 µM and ATP was 50 µM. The mixture was incubated at 30 °C for 5 h. The reaction product was detected by the ph-H3S10 antibody (Abcam, ab5176).
(§2) ADCP1 Agenet domain 1-4 (1-355 aa) and Agenet 3-6 (201–517 aa) proteins were stored in 20 mM HepesNa, pH 7.4, 150 mM NaCl. A 1:1 molar ratio of Alex 488 (Invitrogen, A10254, dissolved in DMSO) was added into ADCP1 and the mixture was incubated at room temperature for 1 h. The excess dye was removed using MicroSpin G-50 column (GE Healthcare, 27533001). DAPI was added to native/K9me3/K9me3S10A 12× nucleosome array to label the DNA. Protein and nucleosome array were diluted to a proper concentration. Equal volume of nucleosome array and ADCP1 were mixed in a 384 well glass bottom plate (Cellvis, P384-1.5H-N). For Fig. 6a, the concentrations of three proteins were 30 μM. […] The sample volume in each well was 5–10 μL. After 1 h incubation at room temperature, images were captured by Nikon A1RMP confocal microscope with 100 × oil objective. For FRAP analysis, mean fluorescence intensities from five regions of interests (ROIs) of time-lapse images were computed. ROI-1 was the bleached droplet, ROI-2 was a non-bleached droplet, ROI-3 was a background region. NIS-element software was used for data analysis.

[7] = tested on: H3(S10A)K9me3 NA with ADCP1; assay: Aurora B treatment of phase-separated ADCP1-H3(S10A)K9me3 NA; type: biochemical; conditions: kinase 5 µM, ATP 50 µM, 30 °C, 5 h
Method: as §1, §2

ADCP1 Agenet 3/4 domain (amino acids 201-355) (Arabidopsis thaliana), sequence (Q500V5 201-355): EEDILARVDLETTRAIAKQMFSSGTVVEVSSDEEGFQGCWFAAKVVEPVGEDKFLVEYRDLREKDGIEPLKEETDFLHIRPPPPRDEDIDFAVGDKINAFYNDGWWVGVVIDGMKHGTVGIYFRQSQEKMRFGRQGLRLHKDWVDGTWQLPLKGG

H3(1-15)K4me3 peptide gave a Ka [1] of 24000 M⁻¹, a stoichiometry N [1] of 0.971 and a Ka [2] of 19000 M⁻¹. For the same molecule, the stoichiometry N [2] was 1.12.

H3(1-15)K9me2 peptide gave a Ka [2] of 333000 M⁻¹ and a stoichiometry N [2] of 1.01.

With H3(1-15)K9me2S10ph peptide the Ka [1] was 10000 M⁻¹ and the stoichiometry N [1] was 1.

For “histone H3 (synthetic H3 peptides) 1-15 (from UniProt P59226) H3K9me2S10ph peptide”, the “binding against the reference” value [3] was “weaker”, the “binding against the reference” value [4] was “weaker” and the “binding against the reference” value [5] was “weaker”.

B1: H3K9me3S10ph (peptide)
chain: ARTKQTARKSTGGKA
modifications: trimethyl-Lys9, phospho-Ser10 (mature H3 numbering; precursor 10 and 11). Taken as the ITC peptide of Fig. 1e with limits 1-15 from the paper's other H3K9me peptides; the text uses the same name for the Aurora B-treated MLA nucleosome array, which is a different molecule
B1 showed a Kd [6] of 42.5 µM.

B2: Aurora B: human Aurora B kinase, causes S10 phosphorylation (protein, UniProt Q96GD4 1-344, looked up)
Aurora kinase B: MAQKENSYPWPYGRQTAPSGLSTLPQRVLRKEPVTPSALVLMSRSNVQPTAAPGQKVMENSSGTPDILTRHFTIDDFEIGRPLGKGKFGNVYLAREKKSHFIVALKVLFKSQIEKEGVEHQLRREIEIQAHLHHPNILRLYNYFYDRRRIYLILEYAPRGELYKELQKSCTFDEQRTATIMEELADALMYCHGKKVIHRDIKPENLLLGLKGELKIADFGWSVHAPSLRRKTMCGTLDYLPPEMIEGRMHNEKVDLWCIGVLCYELLVGNPPFESASHNETYRRIVKVDLKFPASVPMGAQDLISKLLRHNPSERLPLAQVSAHPWVRANSRRVLPPSALQSVA
For B2, the “dissolution of phase transition by Aurora B, H3K9me3 NA” value (ADCP1-H3K9me3 NA) was “phase transition of the former but not the latter can be dissolved by Aurora B treatment” and the “dissolution of phase transition by Aurora B, H3(S10A)K9me3 NA” value [7] was “not the latter can be dissolved by Aurora B treatment”.

From paper PMC6318295, “Plant HP1 protein ADCP1 links multivalent H3K9 methylation readout to heterochromatin formation” (Cell Research, 2018)
